Results as given in patent publication US20060165686A1 (NOVIMMUNE S A, published 2006).
Blank lines part the entries; values can stand above or below the binder they belong to.

How the values were obtained:
Assay in all cases: cell-based or functional assay
[1] = biological target: human toll-like receptor 4 (TLR4) (human, UniProt O00206 24-839)
[2] = biological target: T1, human MD-2 accessory protein (human, UniProt Q9Y6Y9 19-160)
T1 chain: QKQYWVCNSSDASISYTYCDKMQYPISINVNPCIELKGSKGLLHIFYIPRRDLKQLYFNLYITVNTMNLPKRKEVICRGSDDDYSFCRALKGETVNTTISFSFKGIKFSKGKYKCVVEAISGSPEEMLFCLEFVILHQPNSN

[3] = biological target: human toll-like receptor 2 (TLR2) (human, UniProt O60603 21-784)
human toll-like receptor 2 (TLR2), sequence (O60603 21-784): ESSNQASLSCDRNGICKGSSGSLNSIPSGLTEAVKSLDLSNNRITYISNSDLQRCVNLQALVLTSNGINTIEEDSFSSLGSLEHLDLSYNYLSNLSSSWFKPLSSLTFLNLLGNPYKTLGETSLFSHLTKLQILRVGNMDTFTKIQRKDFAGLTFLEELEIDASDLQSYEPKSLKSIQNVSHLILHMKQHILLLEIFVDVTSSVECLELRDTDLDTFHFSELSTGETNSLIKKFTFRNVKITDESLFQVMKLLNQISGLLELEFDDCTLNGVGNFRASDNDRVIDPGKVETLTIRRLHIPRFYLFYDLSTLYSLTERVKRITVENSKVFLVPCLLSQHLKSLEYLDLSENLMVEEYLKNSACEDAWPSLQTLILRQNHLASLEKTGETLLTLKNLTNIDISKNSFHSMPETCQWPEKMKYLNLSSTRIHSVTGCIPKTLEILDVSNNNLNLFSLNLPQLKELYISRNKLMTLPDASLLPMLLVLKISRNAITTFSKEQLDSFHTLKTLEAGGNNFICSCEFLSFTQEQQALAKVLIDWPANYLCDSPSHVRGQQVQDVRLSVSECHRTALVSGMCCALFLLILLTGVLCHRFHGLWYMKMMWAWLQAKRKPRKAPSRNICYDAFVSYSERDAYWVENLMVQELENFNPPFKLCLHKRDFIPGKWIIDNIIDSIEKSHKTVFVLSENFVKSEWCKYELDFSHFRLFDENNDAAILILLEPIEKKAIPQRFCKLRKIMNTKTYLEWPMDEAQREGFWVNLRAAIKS

human toll-like receptor 4 (TLR4), sequence (O00206 24-839 limits assumed): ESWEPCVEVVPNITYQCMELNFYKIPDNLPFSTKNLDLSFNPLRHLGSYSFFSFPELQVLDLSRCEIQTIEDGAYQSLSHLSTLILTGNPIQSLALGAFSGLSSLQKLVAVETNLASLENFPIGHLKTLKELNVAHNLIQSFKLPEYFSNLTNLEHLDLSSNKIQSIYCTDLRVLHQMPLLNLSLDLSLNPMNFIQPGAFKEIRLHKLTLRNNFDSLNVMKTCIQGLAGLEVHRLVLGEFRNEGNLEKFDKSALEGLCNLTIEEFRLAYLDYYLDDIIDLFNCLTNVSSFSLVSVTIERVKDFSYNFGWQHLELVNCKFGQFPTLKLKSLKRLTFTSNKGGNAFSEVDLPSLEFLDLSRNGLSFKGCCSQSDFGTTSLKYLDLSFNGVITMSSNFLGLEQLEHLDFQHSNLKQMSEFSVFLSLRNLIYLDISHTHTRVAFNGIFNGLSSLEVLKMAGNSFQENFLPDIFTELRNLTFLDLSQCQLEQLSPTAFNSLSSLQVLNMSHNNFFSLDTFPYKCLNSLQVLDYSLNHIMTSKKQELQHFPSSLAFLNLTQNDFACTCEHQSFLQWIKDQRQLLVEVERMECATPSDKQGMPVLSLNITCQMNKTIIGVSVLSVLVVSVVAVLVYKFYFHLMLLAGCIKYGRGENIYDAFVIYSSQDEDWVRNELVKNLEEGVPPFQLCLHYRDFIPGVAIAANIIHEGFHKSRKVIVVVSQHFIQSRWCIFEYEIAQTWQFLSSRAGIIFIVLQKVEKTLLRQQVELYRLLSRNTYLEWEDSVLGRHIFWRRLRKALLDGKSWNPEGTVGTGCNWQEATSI

IL-6 production induced by pseudomonas LPS in human whole blood [1]: ~50%
B1: α-human TLR4 MAb 15C1 (murine 15C1 monoclonal antibody) (antibody, mouse IgG1, V domains shown)
VH: DVQLQESGPDLIQPSQSLSLTCTVTGYSITGGYSWHWIRQFPGNKLEWMGYIHYSGYTDFNPSLKTRISITRDTSKNQFFLQLNSVTTEDTATYYCARKDPSDGFPYWGQGTLVTVSA
VL: DIVMTQSPATLSVTPGDRVSLSCRASQSISDHLHWYQQKSHESPRLLIKYASHAISGIPSRFSGSGSGTDFTLSIKSVEPEDIGVYYCQNGHSFPLTFGAGTKLELK

IL-6 production induced by pseudomonas LPS in human whole blood [2]: ~50%
B2: α-human MD-2 MAb 18H10 (murine 18H10 monoclonal antibody) (antibody, mouse IgG2b, V domains shown)
VH: QVQLQQSGADLVRPGALVKLSCTASGFNIKDSYIHWVKKRPEWGLEWIGWTDPENVNSIYDPRFQGKASITADTSSNTAFLQLTSLTSEDTAVYYCARGYNGVYYAMDYWGQGTSVTVSS
VL: QIVLTQSPSIMSASLGEEITLTCSASSSVIYMHWYQQKSGTSPKLLIYRTYNLASGVPSRFSGSGSGTFYSLTISSVEAEDAADYYCHQWSSFPYTFGGGTKLEIKR

IL-6 production induced by pseudomonas LPS in human whole blood [3]: ~50%
B3: α-human TLR2 MAb T2.5 (antibody, V domains shown)
VH: QVQLQQSGPELVNPGASVKLSCKASGFTFTTYGINWVKQGPGQGLEWIGWIYPRDGSTNFNENFKDKAALTVDTSSSTAYMELHSLTSEDSAVYFCARLTGGTFLDWWGQGTTLTVSS
VL: DIVLTQSPASLAVSLGQRATISCRASESVEYYGTSLMQWYQQKPGQPPKLLIFGASNVESGVPVRFSGSGSGTDFSLNIHPVEEDDIVMYFCQQSRKLPWTFGGGTKLEIKR
